Experimental data as given in WO2019080889A1 (dated 2019).

B1: anti-CSF-1R chimeric antibody C19C (antibody, V domains shown)
VH: EVQLQQSGPELVKPGASVKISCTASAITFTDYYMNWVKQSPGKGLEWIGDIYPNNGGTTYNQKFKGKATLTVDKSSTTAYMELRSLTSEDSAVYYCAREKITMEYYYAMDYWGQGTSVTVSS
VL: DIVLTQSPASLAVSLGQRATISCRASESVSSHDIHLIHWYQQKPGQSPKLLIYAASSLESGVPARFSGSGSATDFTLNIHPVEEEDAATYFCQQSIEDPPTFGGGTKLEIK
B2: humanized anti-CSF-1R antibody huC11 (antibody, human IgG1, kappa, V domains shown)
VH: EVQLVQSGAEVKKPGASVKVSCKASGYTFSNYYMNWVRQAPGQGLEWMGEMNPNTGDSSYNQKFKGRVTLTVDKSTSTAYMELSSLRSEDTAVYYCARRSPWWFFDVWGQGTMVTVSS
VL: DIVMTQSPDSLAVSLGERATINCKSSQSLLSSGNQKTSLTWYQQKPGQPPKLLIYWASTRESGVPDRFSGSGSGTDFTLTISSLQAEDVAVYYCQNDYTYPFTFGQGTKLEIKR
notes: Full-length chains; also called huC11 (VH-b heavy chain and VL-b light chain)
B3: anti-CSF-1R chimeric antibody C27C (antibody, V domains shown)
VH: EVQLQQSGAELVRPGALVKLSCKASGFNIKDYYMHWVKQRPEQGLEWIGRFDPENGDTIYDWKFQDKAIITSDTSSNTAYLHLSSLTSEDTAVYYCARSGDYMFDYWGQGTLVTVSA
VL: ETTVTQSPASLSMAIGEKVTIRCITSTGVDDDFNWYQQRPGEPPKLLISEGNTLRPGVPSRFSSSGYGTDFVFTIENMLSEDVADYFCLQSDHLPFTFGSGTKLEIK
B4: anti-CSF-1R chimeric antibody C11C (antibody, V domains shown)
VH: EVQLQQSGPELVKPGASVKISCKASGYTFSNYYMNWVNQRHGERLEWIGEMNPNNGDSSYNQKFKGKATLTVDKSSSTAYMELRSLTSEDSAVYYCARRSPWWFFDVWGPGTTVIVSS
VL: DIVMTQSPSSLTVTAGEKVTMSCKSSQSLLNSGNQKNSLTWYQQKPGQPPKLLIYWASTRESGVPDRFTGSGSGTDFTLTISSVQTEDLAVYYCQNDYTYPFTFGTGTKLEIK
B5: humanized anti-CSF-1R antibody huC19 (antibody, human IgG1, kappa, V domains shown)
VH: QVQLVQSGAEVKKPGASVKVSCKASAITFTDYYMNWVKQAPGQGLEWIGDIYPNTGGTTYNQKFKGRVTLTVDTSISTAYMELSRLRSEDTAVYYCAREKITMEYYYAMDYWGQGTLVTVSS
VL: DIQLTQSPSSLSASVGDRVTITCRASESVSSHDIHLIHWYQQKPGKAPKLLIYAASSLESGVPSRFSGSGSGTDFTLTISSLQPEDFATYFCQQSIEDPPTFGGGTKVEIKR
notes: Full-length chains; also called huC19 (VH-c heavy chain and VL-a light chain)

How the values were obtained:
[1] = biological target: T1, human CSF-1R protein (huCSF-1R), full length, expressed on CHO-S cells (human, UniProt P07333 20-972); experiment: flow cytometry on CHO cells highly expressing CSF-1R
T1 construct: whole, on cells; Also used here as the target of the monocyte proliferation assays (native receptor on human monocytes); also called CSF-1R/CHO cells; CHO cells highly expressing CSF-1R

[2] = biological target: T2, cynomolgus monkey CSF-1R-His (cynomolgus monkey, UniProt A0A2K5WG90 20-512); experiment: ELISA on cynomolgus CSF-1R-His
T2 construct: Bought protein; also called cynoCSF-1R-His; cynomolgus CSF-1R protein; not shown: His tag

Binder	binding result [1]	binding result [2]
B1	binds	
B2	binds	
B3		no binding
B4	binds	
B5	binds	
